Experimental data from IntAct's records for PubMed 20493856.

B1: ADP-ribosylation factor 6 (Mus musculus), P62331 (parent)
chain: MGKVLSKIFGNKEMRILMLGLDAAGKTTILYKLKLGQSVTTIPTVGFNVETVTYKNVKFNVWDVGGQDKIRPLWRHYYTGTQGLIFVVDCADRDRIDEARQELHRIINDREMRDAIILIFANKQDLPDAMKPHEIQEKLGLTRIRDRNWYVQPSCATSGDGLYEGLTWLTSNYKS
partner: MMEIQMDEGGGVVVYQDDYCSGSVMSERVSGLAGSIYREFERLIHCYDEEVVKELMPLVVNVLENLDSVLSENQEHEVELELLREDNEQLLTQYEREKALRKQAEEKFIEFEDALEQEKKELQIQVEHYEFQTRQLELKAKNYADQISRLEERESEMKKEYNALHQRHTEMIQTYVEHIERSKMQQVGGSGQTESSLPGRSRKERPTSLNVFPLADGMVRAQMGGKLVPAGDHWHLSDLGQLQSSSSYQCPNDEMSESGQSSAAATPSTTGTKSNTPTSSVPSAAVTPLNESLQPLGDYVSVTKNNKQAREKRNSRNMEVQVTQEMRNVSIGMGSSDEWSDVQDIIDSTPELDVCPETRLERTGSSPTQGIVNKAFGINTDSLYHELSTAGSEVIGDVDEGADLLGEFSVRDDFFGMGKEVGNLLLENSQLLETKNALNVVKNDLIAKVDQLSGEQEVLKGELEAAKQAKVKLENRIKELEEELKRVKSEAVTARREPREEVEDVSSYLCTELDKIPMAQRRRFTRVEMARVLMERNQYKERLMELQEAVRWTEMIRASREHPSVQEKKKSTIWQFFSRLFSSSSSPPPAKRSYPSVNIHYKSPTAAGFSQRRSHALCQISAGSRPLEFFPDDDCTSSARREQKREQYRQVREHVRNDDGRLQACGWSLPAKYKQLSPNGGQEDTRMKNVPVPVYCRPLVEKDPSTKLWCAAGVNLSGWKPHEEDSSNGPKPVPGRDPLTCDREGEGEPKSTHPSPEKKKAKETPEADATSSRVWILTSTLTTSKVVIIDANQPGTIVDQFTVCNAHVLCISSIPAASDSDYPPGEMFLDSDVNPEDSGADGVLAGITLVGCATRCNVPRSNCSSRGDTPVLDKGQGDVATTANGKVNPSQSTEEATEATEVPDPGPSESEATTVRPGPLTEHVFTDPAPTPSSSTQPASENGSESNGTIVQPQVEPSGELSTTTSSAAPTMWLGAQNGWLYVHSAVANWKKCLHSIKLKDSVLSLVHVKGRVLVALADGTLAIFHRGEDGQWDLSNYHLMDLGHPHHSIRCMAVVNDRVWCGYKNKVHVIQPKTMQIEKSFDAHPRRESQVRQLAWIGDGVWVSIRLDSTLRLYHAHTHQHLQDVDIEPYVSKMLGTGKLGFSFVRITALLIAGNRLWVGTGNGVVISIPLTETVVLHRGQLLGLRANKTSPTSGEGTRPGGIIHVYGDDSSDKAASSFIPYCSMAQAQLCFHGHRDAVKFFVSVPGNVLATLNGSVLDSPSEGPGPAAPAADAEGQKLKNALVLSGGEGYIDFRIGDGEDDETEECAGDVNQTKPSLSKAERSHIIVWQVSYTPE
B2: ADP-ribosylation factor 6 (Mus musculus), P62331 (parent)
chain: B1 chain
partner: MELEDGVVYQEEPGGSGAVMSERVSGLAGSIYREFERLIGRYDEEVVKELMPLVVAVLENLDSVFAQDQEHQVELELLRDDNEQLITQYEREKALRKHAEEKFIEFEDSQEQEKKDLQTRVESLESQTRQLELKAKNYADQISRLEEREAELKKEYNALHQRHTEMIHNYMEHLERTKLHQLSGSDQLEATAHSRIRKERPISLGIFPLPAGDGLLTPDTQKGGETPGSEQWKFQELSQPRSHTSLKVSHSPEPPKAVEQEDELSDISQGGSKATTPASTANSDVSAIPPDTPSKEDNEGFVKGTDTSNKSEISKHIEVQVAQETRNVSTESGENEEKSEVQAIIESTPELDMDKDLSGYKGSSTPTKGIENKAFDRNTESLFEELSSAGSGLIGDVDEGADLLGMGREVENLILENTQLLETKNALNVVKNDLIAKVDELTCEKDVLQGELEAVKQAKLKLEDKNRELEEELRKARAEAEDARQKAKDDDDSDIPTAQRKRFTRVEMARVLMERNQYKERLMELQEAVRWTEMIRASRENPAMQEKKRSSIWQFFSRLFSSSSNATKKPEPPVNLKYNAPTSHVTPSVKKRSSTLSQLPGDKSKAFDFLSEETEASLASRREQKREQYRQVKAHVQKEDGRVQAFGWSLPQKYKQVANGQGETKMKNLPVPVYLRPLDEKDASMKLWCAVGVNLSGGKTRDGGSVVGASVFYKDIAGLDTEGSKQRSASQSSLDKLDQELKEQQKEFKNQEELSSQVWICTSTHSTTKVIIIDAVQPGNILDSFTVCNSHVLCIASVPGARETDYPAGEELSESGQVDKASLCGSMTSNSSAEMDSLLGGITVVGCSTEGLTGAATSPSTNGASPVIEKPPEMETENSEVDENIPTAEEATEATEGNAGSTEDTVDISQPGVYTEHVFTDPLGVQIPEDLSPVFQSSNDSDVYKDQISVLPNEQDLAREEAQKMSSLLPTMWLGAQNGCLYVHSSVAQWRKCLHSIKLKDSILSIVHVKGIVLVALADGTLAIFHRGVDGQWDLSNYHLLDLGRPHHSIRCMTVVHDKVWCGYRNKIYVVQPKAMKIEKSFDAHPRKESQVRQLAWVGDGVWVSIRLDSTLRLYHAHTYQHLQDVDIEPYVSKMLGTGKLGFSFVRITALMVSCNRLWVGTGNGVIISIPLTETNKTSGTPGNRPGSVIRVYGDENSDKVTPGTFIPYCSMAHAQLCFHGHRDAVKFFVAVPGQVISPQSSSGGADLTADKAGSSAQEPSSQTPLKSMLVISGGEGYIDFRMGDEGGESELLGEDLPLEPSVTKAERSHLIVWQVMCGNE

Variants of: B1
Settings: with jip3_mouse Mapk8ip3, Q9ESN9

effect of a mutation on the interaction	Variant
disrupting interaction	T53E
disrupting interaction	N60T
disrupting interaction	K58C

Variants of: B1
Settings: with jip3_mouse Mapk8ip3, Q9ESN9
Remark: another data set of the same source

effect of a mutation on the interaction	Variant
decreasing interaction	T53E

Variants of: B1
Settings: with jip3_mouse Mapk8ip3, Q9ESN9
Remark: another data set of the same source

effect of a mutation on the interaction	Variant
decreasing interaction	L19V

Variants of: B1
Settings: with jip3_mouse Mapk8ip3, Q9ESN9
Remark: another data set of the same source

effect of a mutation on the interaction	Variant
decreasing interaction	T27N

Variants of: B1
Settings: with jip3_mouse Mapk8ip3, Q9ESN9
Remark: another data set of the same source

effect of a mutation on the interaction	Variant
disrupting interaction	T27N

Variants of: B1
Settings: with jip3_mouse Mapk8ip3, Q9ESN9
Remark: another data set of the same source

effect of a mutation on the interaction	Variant
decreasing interaction	K58C

Variants of: B2
Settings: with jip4_mouse Spag9, Q58A65

effect of a mutation on the interaction	Variant
disrupting interaction	K58C
disrupting interaction	N60T
disrupting interaction	T53E

Variants of: B2
Settings: with jip4_mouse Spag9, Q58A65
Remark: another data set of the same source

effect of a mutation on the interaction	Variant
decreasing interaction	K58C

Variants of: B2
Settings: with jip4_mouse Spag9, Q58A65
Remark: another data set of the same source

effect of a mutation on the interaction	Variant
disrupting interaction	T27N

Variants of: B2
Settings: with jip4_mouse Spag9, Q58A65
Remark: another data set of the same source

effect of a mutation on the interaction	Variant
decreasing interaction	T27N

Variants of: B2
Settings: with jip4_mouse Spag9, Q58A65
Remark: another data set of the same source

effect of a mutation on the interaction	Variant
decreasing interaction	N60T

Variants of: B2
Settings: with jip4_mouse Spag9, Q58A65
Remark: another data set of the same source

effect of a mutation on the interaction	Variant
decreasing interaction	L19V

Variants of: B2
Settings: with jip4_mouse Spag9, Q58A65
Remark: another data set of the same source

effect of a mutation on the interaction	Variant
decreasing interaction	T53E
